One series deals with human C3 (UniProt P01024).

human C3, P01024, sequence (P01024 whole entry, looked up): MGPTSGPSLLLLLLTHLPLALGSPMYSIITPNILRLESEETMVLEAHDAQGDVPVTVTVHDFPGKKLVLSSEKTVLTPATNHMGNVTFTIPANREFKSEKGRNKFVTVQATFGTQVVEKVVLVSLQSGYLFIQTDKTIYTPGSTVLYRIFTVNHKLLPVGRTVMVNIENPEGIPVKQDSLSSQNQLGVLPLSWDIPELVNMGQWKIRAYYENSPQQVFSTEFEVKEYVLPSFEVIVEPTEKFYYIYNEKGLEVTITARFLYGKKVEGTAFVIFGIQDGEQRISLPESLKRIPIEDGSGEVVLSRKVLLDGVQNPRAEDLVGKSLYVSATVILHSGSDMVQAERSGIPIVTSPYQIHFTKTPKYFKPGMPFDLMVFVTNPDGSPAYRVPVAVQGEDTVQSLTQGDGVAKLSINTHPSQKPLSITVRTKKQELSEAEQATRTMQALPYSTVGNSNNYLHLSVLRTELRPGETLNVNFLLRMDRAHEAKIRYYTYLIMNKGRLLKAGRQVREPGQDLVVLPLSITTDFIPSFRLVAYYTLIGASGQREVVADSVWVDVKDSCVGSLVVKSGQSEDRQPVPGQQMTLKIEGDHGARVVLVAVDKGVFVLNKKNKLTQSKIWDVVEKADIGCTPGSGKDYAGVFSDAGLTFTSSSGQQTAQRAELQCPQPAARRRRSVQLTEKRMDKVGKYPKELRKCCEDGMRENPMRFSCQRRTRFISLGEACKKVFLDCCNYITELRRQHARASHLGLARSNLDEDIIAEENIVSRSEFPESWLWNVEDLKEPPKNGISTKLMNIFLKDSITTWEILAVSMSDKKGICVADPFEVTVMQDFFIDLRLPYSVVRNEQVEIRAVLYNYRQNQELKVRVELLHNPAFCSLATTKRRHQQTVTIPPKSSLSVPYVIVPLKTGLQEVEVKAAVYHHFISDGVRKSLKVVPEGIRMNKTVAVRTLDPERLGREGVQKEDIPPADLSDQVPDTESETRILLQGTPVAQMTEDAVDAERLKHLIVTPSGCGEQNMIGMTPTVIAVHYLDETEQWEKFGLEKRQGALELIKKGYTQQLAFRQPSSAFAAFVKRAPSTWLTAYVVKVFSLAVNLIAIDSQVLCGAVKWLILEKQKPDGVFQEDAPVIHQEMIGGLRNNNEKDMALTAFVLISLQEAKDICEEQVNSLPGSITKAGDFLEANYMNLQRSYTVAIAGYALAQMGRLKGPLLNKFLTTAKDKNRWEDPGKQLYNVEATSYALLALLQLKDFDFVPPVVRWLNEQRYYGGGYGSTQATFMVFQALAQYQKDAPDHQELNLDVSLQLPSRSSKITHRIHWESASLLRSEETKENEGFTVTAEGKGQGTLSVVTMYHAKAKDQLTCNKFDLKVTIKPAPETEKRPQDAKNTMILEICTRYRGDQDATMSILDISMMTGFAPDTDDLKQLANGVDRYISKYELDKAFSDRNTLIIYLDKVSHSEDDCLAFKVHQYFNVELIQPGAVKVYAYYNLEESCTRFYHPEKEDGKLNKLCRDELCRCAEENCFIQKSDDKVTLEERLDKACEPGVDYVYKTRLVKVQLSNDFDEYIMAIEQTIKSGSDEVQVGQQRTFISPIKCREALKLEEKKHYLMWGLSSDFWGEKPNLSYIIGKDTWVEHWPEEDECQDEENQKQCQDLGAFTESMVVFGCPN

Consider “human FCXIa (activated form of human clotting factor XI)”, for which the “cleavage of the C3 alpha chain to the a' chain (Western blot)” value (shortened to “cleavage of the C3 alpha chain”) in the series with human C3 is “can cleave C3 in vitro in the absence of any complement proteases”.

As for “human FXa (activated form of human clotting factor X)”, in the series with human C3, the “cleavage of the C3 alpha chain” value is recorded as “can cleave C3 in vitro in the absence of any complement proteases”.

B1: bovine FXa (activated bovine clotting factor X) (protein)
chain: ANSFLEEVKQGNLERECLEEACSLEEAREVFEDAEQTDEFWSKYKDGDQCEGHPCLNQGHCKDGIGDYTCTCAEGFEGKNCEFSTREICSLDNGGCDQFCREERSEVRCSCAHGYVLGDDSKSCVSTERFPCGKFTQGRSRRWAIHTSEDALDASELEHYDPADLSPTESSLDLLGLNRTEPSAGEDGSQVVRIVGGRDCAEGECPWQALLVNEENEGFCGGTILNEFYVLTAAHCLHQAKRFTVRVGDRNTEQEEGNEMAHEVEMTVKHSRFVKETYDFDIAVLRLKTPIRFRRNVAPACLPEKDWAEATLMTQKTGIVSGFGRTHEKGRLSSTLKMLEVPYVDRSTCKLSSSFTITPNMFCAGYDTQPEDACQGDSGGPHVTRFKDTYFVTGIVSWGEGCARKGKFGVYTKVSNFLKWIDKIMKARAGAAGSRGHSEAPATWTVPPPLPL
On to B1, for which, in the series with human C3, P01024, the “cleavage of the C3 alpha chain” value was “can cleave C3 in vitro in the absence of any complement proteases”.

Source of the values: patent US20240293465A1.
